Assay results taken from patent US20220186225, “COMPOUNDS FOR DETECTING AND TREATING MYCOPLASMA HYOPNEUMONIAE” (AEROVIRUS TECHNOLOGIES INC., published 2022).

Biological target: T1, P97 cilium adhesin peptidic complex (F2P97 / R1-containing section, SELEX target) (Mycoplasma hyopneumoniae)
T1 chain: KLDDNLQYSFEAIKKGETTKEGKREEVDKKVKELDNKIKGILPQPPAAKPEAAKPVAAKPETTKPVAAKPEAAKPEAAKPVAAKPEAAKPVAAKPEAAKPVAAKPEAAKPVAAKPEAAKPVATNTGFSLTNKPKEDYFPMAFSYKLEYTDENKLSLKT
Assay: ELISA; reverse screening on streptavidin plate, 37 C
Conditions: tags: His tag (Ni-NTA captured); label: biotin in reverse screening
Procedure: Reverse Screening of Aptamer—Selected ssDNA molecules from each individual clone were biotinylated using the B-T3 which is same sequence with 5′ primer (T3 primer), and Klenow fragment (2 unit/ml). To prepare single stranded biotin conjugated APT3Cooc10 aptamer for the reverse screening. T3 Primer was Biotin labelled. A 96-well flat bottom ELISA plate was prepared by coating each well with 100 μl of streptavidin (100 μg/ml) diluted in 0.1 M NaHCO₃ following by a 37° C. overnight incubation. Following several washings with PBS, wells were blocked with 200 μl of PBS containing 1% BSA for 2 hours at room temperature and subsequent washing three times with PBS-T (10 mM PBS containing 0.05% (v/v) Tween-20). Thereafter, 100 μl of 2.5 pmole/100 μl biotinylated-ssDNA were added to the wells and incubated at 37° C. for 2 hours followed by washing four times with PBS-T. T3 primer was used as negative control. Following washing, 100 μl of fluid containing 2 μg histidine labelled P97 peptidic complex were added to the indicated wells and incubated at 37° C. for 2 hours. […]
Enzyme-Linked Immunosorbent Assay (ELISA)—The ELISA tests were carried-out following all the guidelines provided with the DAKO kit. Reaction was terminated with 100 μl of 0.5M H₂SO₄, and the plates were read with a multichannel spectrophotometer at 450 nm.

Binder	binding result
APT3Cooc3 (ssDNA) DNA: GCCTGTTGTGAGCCTCCTAACTAGCTCGTAGAAAAAAAATATAGCGTGTGCTGGGACTGCTCGGGATTGCGGACACATGCTTATTCTTGTCTCCC	binds
APT3Histo1 (ssDNA) DNA: GCCTGTTGTGAGCCTCCTAACCGCACGTGGGTATTCTAAGTGCGGTAGCTCAATGGTGAGCGATGAGCATCATGCTTATTCTTGTCTCCC	binds
